Measurements: the DeepSol protein solubility set

test: soluble on expression in E. coli; label from the status in PepcDB or PDB records

Sequence | soluble on expression in E. coli
MSLRINLTSEKTLKEASTSMAPNVLKGNVIKNKAVASGKYVPFFGSSELSRFSAFHPSVLSEKYQRNYRPFLLGEAGTQSLTQAMVIHSMGDAIANKKAVFILSPQWFVKKGVPNDSFGAHYSQLQTYQWLANLTELTSGDQYLAQRLTKFPVVQKDKVLMETLANLQAGQLPQRSQRDYFIMNLRFLNREDELFSQIGMVSREPIVEKDMKQLPATYNFNELDQLAGKIAAKAINNNKFEISNGFYRQRIKPVLPKLAHSQKKWDYRFSPEYGDFQAALEQLAEKNVDVLFVIPPVNKRWSDYTGLSQDMLQQVARKLKYQLQEQGFTNIADFSTCSNERYFMADTIHLGWRGWLAVDRQVDEFMKQPASKKLAYQIDDRFYQTDWQQQNPLVLPQFEGHHHHHH | soluble
MVAAPPAVGAAMPSLDFDTSVFNKEKVSLAGHEEYIVRGGRNLFPLLPEAFKGIKQIGVIGWGSQGPAQAQNLRDSLAEAKSDIVVKIGLRKGSKSFDEARAAGFTEESGTLGDIWETVSGSDLVLLLISDAAQADNYEKIFSHMKPNSILGLSHGFLLGHLQSAGLDFPKNISVIAVCPKGMGPSVRRLYVQGKEINGAGINSSFAVHQDVDGRATDVALGWSVALGSPFTFATTLEQEYKSDIFGERGILLGAVHGIVEALFRRYTEQGMDEEMAYKNTVEGITGIISKTISKKGMLEVYNSLTEEGKKEFNKAYSASFYPCMDILYECYEDVASGSEIRSVVLAGRRFYEKEGLPAFPMGNIDQTRMWKVGEKVRSTRPENDLGPLHPFTAGVYVALMMAQIEVLRKKGHSYSEIINESVIESVDSLNPFMHARGVAFMVDNCSTTARLGSRKWAPRFDYILTQQAFVTVDKDAPINQDLISNFMSDPVHGAIEVCAELRPTVDISVPANADFVRPELRQSS | soluble
MKKYIITAFAFITLLTGSVTFTACEDIDDIKELNLDRLLSPTNLTARVRDKVNIELTWDEMDRAQSYVIEVFKEDPDFTGTAISTLESEKATYTVTGLEGETSYSIRVKSVAEGITDSKWVSATRSTDAEQILLEVAEEDLTASEVTLRWPAGQVATEIIITPNDVAAHRVTSDEIAAGAATIKNLKSETTYTATLKNGDKTRGTMVFTTLINLDGALPAYPGDNLATIIATAEANATIVLLPKDDNNSFIYTDESGTAKTLEIELTKDVTIKGLYAENRPTTNIKFVLSGCNNFKIENLNLTASDGGTIITVLDSKGGNITVTNCDVTGFGSLLVENDNTQTGTINTFTVDNCIFHDMASGKRFVDYQKKKSFIAEFTLKNSTFYNCCSGSDFIRFDRHSTKGNIINISNCTLYGIEATSKGLFYVRSNSVGNKDFTANITKCIFANMSNKVFFSQDTKTDNLTFNSNYYFEAPSLLSIPEGGAGKVVDATGVTLDPGFTDAANGNFKVSNQTIIDNEIGDPRWRK | soluble
ASDDELFSMLDQRFGGGEDLLMSGDNGMTEEKLRRYLKRTVTELDSVTARLREVEHRAGE | soluble
PVKPVAPGEQQKNWAHWGNTTHGDRFAALDQINKQNVNQLQVAWVAHTGDIPQSNGSGAEDQNTPLQIGDTLYVCTPYSKVLALDVDSGKEKWRYDSKSSSPNWQRCRGLGYYEDSQAQTAPAAGTQPAACSRRLFLPTIDARLIAIDADTGKLCESFGDRGIVDLSVGMGEVKAGYYQQTSTPLVAGNVVVVGGRVADNYSTGEPPGVVRAFDVHTGKLAWAWDPGNPALTGVPPEGQTYTRGTPNVWSAMSYDAKLNLIYLPTGNATPDFFGGERTALDDKYSSSIVAVDATTGQVRWHFQTTHHDLWDFDLPSQPLLYDLPDGKGGTTPVLVQTSKQGMIFMLNRETGEPVAKVEERPVPAGNVKGERYSPTQPYSVGMPMIGNQTLTESDMWGATPIDLLLCRIQFKEMRHQGVFTPPGEDRSLQFPGSLGGMNWGSVSLDPNNSLMFVNDMRLGLANYMVPRAKVAKDASGIEMGIVPMEGTPFGAMRERFLSPLGIPCQKPPFGTMSAVDLKTGKLVWQVPVGTVEDTGPLGIRMHMPIPIGMPTLGASLATQSGLLFFAGTQDFYLRAFDTANGKEIWKSRLPVGSQSGPMTYVSPKTGKQYIIINAGGARQSPDRGDYIIAYALPDHH | not soluble
MAHHHHHHMSRNGELCLKKVIISYCPSNGAPNTRQFLATHLPHFHAKYPSVSIDLRPRLWPEMAITGVYRDGSERSYNTKNLSPMGIFLRLNNLVSTANDYDQPFCASHLHFQRRSVQGTWNPWLWNYETERRRTEAPQWRRKLSEKEWDYYVGQYSAQMKQEEDEIQRRVADRTCVQEQSTREVQERWKRHVVPRMQTDLEFNLSHFKRQHARGQLQQRPVTMGEYRLFSVPDPRELGQDAVDTMRRRESHNMEVWWRKRKEQLKPP | not soluble
SNKLMELANLQPKRPKTIKQRHVRKKRKIKDMLNTPLCPSHSSLHPVLLPSDVFDQPQPVGNKRIEFHISTDMPAAFKKDLEKEQNCEEKNHDLPATEVDASNIGFGKIFPKPNLDITEEIKEDSDEMPSECISRRELEKGRISREEMETLSVFRSYEPGEPNCRIYVKNLAKHVQEKDLKYIFGRYVDFSSETQRIMFDIRLMKEGRMKGQAFIGLPNEKAAAKALKEANGYVLFGKPMVVQFARSARPKQDPKEGKRKC | soluble
MAHHHHHHMSVVISTSLGSLLINLRFVDCPKASFNFLALCASSYYDGCRFHRLVPETFVLTGDPTGTGKGGESVFVHHQDIKQRYFEDEGMGNALHDRRGVVSMAHKGNKPDTNASQFFILFKPCPSLDSKHTAFGVVDFGWNDGESERTLKRVEELEADGSYNVLDVEARILSTTVLYNPFAEGHIKLNV | not soluble
MRSKRWKTSDITDYGKKRKESESCGSSSPILETQSSGGAELDEVTEDEYSSNSSSNETSDEEENSEVPNVLSITEREKSWQKLTENDLGRIRFILKYTSNTKKCVNEYFQYNHGQNNEIMKSLLLDTDGTMTAKACSECAYDLNQCHCKKPLRFINAPCEVINQVLHVENAEPTRINHVIATLFRNHIGEIFTKARTAEARASEEAQIRIQIQDNSNAFQRSYHNDPQPSSAEEHEEDIVVDG | not soluble
MQVQAPRRTPKIQQVVEFVESLDDNHRLKGKEDGETYLIEPNAISRIYIENRQVLAETTQGDYHLGLRLYQVLEILPAYFIKISQSEIVNLKEIERFNITPNRLVEIHLKTRKLATHHAVTSKQ | not soluble
MGSDKIHHHHHHMKSWPRPCSWACANPETKGRAYRTMSSSPTISPASDTFAAMTDDHRLAEFIREQASATRVVIQARKRLSGGAIQENWLLDLLIEGGPWAGVRRWVLRSDALSALPASLDREQEFAVLQVVYQAGVKVPRPLWLCRDVRVHGRVFFLMEYVPGSAAGRALSTGAGPQGRAQLATQLGANLARLHQVRPPCATLCFLSVPDSSPALATIDAYRRYLDTLADAYPVLEWGLRWCELHAPRSSTLCLLHRDYRTGNYLASEEGLEAVLDWEFTGWGDPCEDLGWFTARCWRFTRPDLEAGGIGQLEDFLRGYHEVSSLCIERSRLHYWQVMATLRWAVIALQQGQRHLSGEEPSLELALTARLLPELELDILHMTGAEAP | not soluble
MQLFDLSLEELKKYKPKKTARPDFSDFWKKSLEELRQVEAEPTLESYDYPVKGVKVYRLTYQSFGHSKIEGFYAVPDQTGPHPALVRFHGYNASYDGGIHDIVNWALHGYATFGMLVRGQGGSEDTSVTPGGHALGWMTKGILSKDTYYYRGVYLDAVRALEVIQSFPEVDEHRIGVIGGAQGGALAIAAAALSDIPKVVVADYPYLSNFERAVDVALEQPYLEINSYFRRNSDPKVEEKAFETLSYFDLINLAGWVKQPTLMAIGLIDKITPPSTVFAAYNHLETDKDLKVYRYFGHEFIPAFQTEKLSFLQKHLLLST | soluble
MGSDKIHHHHHHMQEVATEARIGPNSIIQTVAAARAQYGEEAVADWLRRTGRGHLLEAMPDHMLPESEFGDLIADLRFWLGVSAAADVLAQSGDLTAQYVATHRVPVPIRWLLPRLPVGLALRIFLPAIARHAWTFAGSGRFGYTLQPAWRLTLADSVEARGVRATEPVCAYYRAAFEGLLRRVVCDRLRVHEVACRAMGTGRCEFAVELSR | not soluble
MSLGLIRAQPKSGYYVSNHAIKQLASKTTPVPEQASTVVSISDMVFSILSSIKDPETVPLGSAFPWPDLFPLARLSRSLAHATRDMGPAAIVESLPPGNHDLRRQIARRYLMQGVEADVDNILITNGAFEALNLCLEAVTQPGDLVAIESPTFHGCLQALERLQLKAVEIPVDPVLGMDLDYLESVLEKCPVRACWSMTSFQNPMGVSMPAERKQVLVELLTRYRIPLIEDDVYGELYFGMQEHRPAKAYDSEGYVMHCSSFSKTLAPGYRIGWALLPKRFERKVERLKVITSLSTSTIAQAAIADFLQHGGYDRHLRRLRTKFELQQHQYLHLIARYFPAETQVTRPHGGYFLWVDLPERVDALVLFQRALEQGVSVAPGPIFSARHQCCNCIRINYSKPVDAEVEQAFKTLGRLMSSIEAEGHHHHHH | soluble
TSTDWKEAKSFLKGLSDKQREEHYFCKDFVRLKKIPTWKEMAKGVAVKVEEPRYKKDKQLNEKISLLRSDITKLEVDAIVNAANSSLLGGGGVDGCIHRAAGPLLTDECRTLQSCKTGKAKITGGYRLPAKYVIHTVGPIAYGEPSASQAAELRSCYLSSLDLLLEHRLRSVAFPCISTGVFGYPCEAAAEIVLATLREWLEQHKDKVDRLIICVFLEKDEDIYRSRLPHYFPVA | soluble
MGSSHHHHHHSSGLVPRGSHWGSPNSSSVDKLMDTIVAVATPPGKGAIAILRLSGPDSWKIVQKHLRTRSKIVPRKAIHGWIHENGEDVDEVVVVFYKSPKSYTGEDMVEVMCHGGPLVVKKLLDLFLKSGARMAEPGEFTKRAFLNGKMDLTSAEAVRDLIEAKSETSLKLSLRNLKGGLRDFVDSLRRELIEVLAEIRVELDYPDEIETNTGEVVTRLERIKEKLTEELKKADAGILLNRGLRMVIVGKPNVGKSTLLNRLLNEDRAIVTDIPGTTRDVISEEIVIRGILFRIVDTAGVRSETNDLVERLGIERTLQEIEKADIVLFVLDASSPLDEEDRKILERIKNKRYLVVINKVDVVEKINEEEIKNKLGTDRHMVKISALKGEGLEKLEESIYRETQEIFERGSDSLITNLRQKQLLENVKGHLEDAIKSLKEGMPVDMASIDLERALNLLDEVTGRSFREDLLDTIFSNFCVGK | soluble
MFKDKKILVIGGTGSIGQALIERILTENPAVIRVYSRDEYKQFLLAEKFRENANIRYLIGDVRDEDRLDRAMNDIDIVFNLAALKHVPACEYNPFEAVRTNVIGSQNVIACAMANKVKKVIYTSSDKAVSPTNTMGATKLLAERLMSSSNYSRGNTGTVFASVRFGNVMGTRGSVIPLFKQQVLEKGYITVTEPEMTRFMMSLSQAVELTIKACSIARGGEVFVLKMPVIRLKDLAEVIIEDMCKKNNIDPEKIEIKKIGLRPGEKMYEELMSEDESTKAVELNDMYVIMPPFENSYYINARKAVIGNYSSQKEKTLTKSQIRELLVREKLI | not soluble
MGSDKIHHHHHHMDLDRIKGEIVAFVEGRKSEFAAIAEDLYLHPETGLNEVRSSALLADFLEREGFRVERGIAGLPTAFRAETGEGGPVIAFMAEMDALPVMGHACGHNVIAAAAVGAATALRSILPPDAARIVVLGTPAEEMGIGKVDMIANGAFDGVEFALMVHPSSRRYVIKHYLGLARVRFTFFGKPAHAAAYPEEGINALDGVIQTFNGISALRQQLRQDVRVHGIITEGGVAPNIIPERASAHFYVRADDLAELERAKARVLACAEGAALATGCRLQVDADPRIMAPLKVNRIFSDLYSAQLAYLDLQESENQPDKNKGSSDIGNVSQIVPTIHPHVPIGDGINIHSEAFARATVSGKGKAAVAEGATALALTAAELAARPDIREEIWREFRS | not soluble
